Settings in all cases: tags: biotinylated, Bio-Techne, captured on Neutravidin chip; chain copies: 2
Data set [1] addresses T1, VEGF165 (Homo sapiens, UniProt P15692-4 P15692-4:27-191). Nature of the data set: SPR; overall mean +/-29; PBS + 0.1% Tween20, 20 C; double-exponential fit. On the procedure: (§1) 2′OMe/MOE-RNA aptamers were synthesized from RNA primer Prim1 and 3′-biotinylated DNA template Temp_ARC224 (Supplementary Table 1) as described in section “Synthesis of 2′OMezymes for characterization” using 2′OMe/MOE-NTPs. 2′OMe/MOE-RNA aptamers were annealed at 1-10 μM in nuclease-free water by heating to 95° C. for 5 min and equilibrating at RT for 10 min. They were then diluted and analysed in PBS+0.1% (v/v) Tween20 (PBS-Tw). Surface Plasmon Resonance (SPR) measurements were made using a BIAcore 2000 instrument (GE Life Sciences, UK) at a flow rate of 20 μLmin⁻¹ at 20° C. CM4 sensor chip (GE Life Sciences, UK) surfaces were coated with Neutravidin (Pierce 31000, ThermoFisher Scientific, USA) surfaces (˜8000 RU per flow cell) using an amine coupling kit (GE Life Sciences, UK) and flowing in 5 mM NaOAc (sodium acetate), pH 5.5. Chips were equilibrated in PBS Tw and left to flow overnight until signal drift had settled. ˜2000 RU biotinylated human VEGF165 (Bio-Techne, USA) was captured (except for the reference cell) before blocking with excess free biotin. 50 μL aptamer samples at a series of concentrations (500 nM, 250 nM, 125 nM, 62.5 nM, 31.3 nM, 15.6 nM, 7.8 nM, 3.9 nM) were injected for 150 s and dissociation was recorded for 600 s, in PBS-Tw. Single injections of aptamers outside of the concentration series were performed at 100 nM (50 μL) in PBS-Tw. […]
In general terms: In SPR one partner is held on a chip, and binding of the other changes the refractive index at the surface.

Data set [2] addresses T1, VEGF165. In words: SPR; overall mean +/-88; PBS + 0.1% Tween20, 20 C; double-exponential fit. The procedure: as §1
For data set [3], the target named is T1, VEGF165. Nature of the data set: SPR; overall mean +/-16; PBS + 0.1% Tween20, 20 C; double-exponential fit. The procedure: as §1

Data on 3 molecules can be found in patent US20250197820A1, “NUCLEIC ACID POLYMERASE AND ITS USE IN PRODUCING NON-DNA NUCLEOTIDE POLYMERS” (UNITED KINGDOM RESEARCH AND INNOVATION, priority 2021, published 2025).

One may read the Kd as the free concentration of one partner at which half of the binding sites on the other are occupied at equilibrium, for simple one-to-one binding.

T1 sequence (P15692 other isoform, or with tags, fused parts or gaps): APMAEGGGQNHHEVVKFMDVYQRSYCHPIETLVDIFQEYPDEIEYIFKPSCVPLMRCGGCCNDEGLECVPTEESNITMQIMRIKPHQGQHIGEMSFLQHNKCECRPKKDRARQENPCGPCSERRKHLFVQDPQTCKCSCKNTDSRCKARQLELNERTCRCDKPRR

On to CGATATGCAGTTTGAGAAGTCGCGCATTCG (XNA, 2'-OMe G and U, 2'-O-MOE A and C) [ARC224 2'OMe-GU MOE-AC], for which the Kd with VEGF165 [1] was found to be 30 nM.
On to CGATATGCAGTTTGAGAAGTCGCGCATTCG (XNA, 2'-OMe U, 2'-O-MOE A, C and G) [ARC224 2'OMe-U MOE-ACG], for which, in the data set with VEGF165 [2], the Kd stood at 92 nM.
On to CGATATGCAGTTTGAGAAGTCGCGCATTCG (XNA, all 2'-OMe (A,C,G,U)) [ARC224 2'OMe], for which the Kd in the data set with VEGF165 [3] was found to be 23 nM.
